Assay results from patent publication US8168592B2 (Amgen Inc., priority 2005, dated 2012).
Where two headings read alike, the source gives them in different places. One block for each compound: values may come before it.

Experiments:
[1] = solubility in aqueous conjugation buffers; type: physicochemical
Procedure: Co-solvent mediated conjugation of vehicle to CGRP peptide antagonists. […] In an attempt to better solubilize these less soluble peptides during the conjugation reaction, and thereby improve conjugate yields, a variety of alcohol co-solvents were tested in the conjugation reaction.

[2] = in vivo metabolic identification in monkey plasma during intravenous infusion; set-up: species or system Cynomolgus monkey; details: 20 min during intravenous infusion
Excerpt: Monkey pharmacokinetic studies.
Samples were taken as described above. After thawing, each 100-11 plasma sample was extracted by solid phase extraction. Extracted samples were collected for LC-MS/MS analysis.

[3] = in vitro metabolic identification in 100% monkey plasma, LC-MS/MS; type: in vitro ADME; details: 100% Cynomolgus monkey plasma, 4 hours
Excerpt: Extracted samples were collected for LC-MS/MS analysis.
(Also, see Example 7 herein below for comparison with in vivo metabolic identification.)

[4] = stability in undiluted Cynomolgus plasma at 37° C. by ELISA; type: in vitro ADME; details: cynomolgus monkey
Excerpt: (§1) Examples of this approach are the replacement of arginine (R) with citrulline, and phenylalanine (F) with 3-(1-naphthyl)alanine. We have also cyclized side-chain to side-chain (for example, i, i+4 residues) to form ring structures which also increase overall plasma stability (See, e.g., FIG. 3 and FIG. 13).

[5] = stability in undiluted rat plasma at 37° C. by ELISA; type: in vitro ADME
Excerpt: as §1

[6] = stability in undiluted human plasma at 37° C. by ELISA; type: in vitro ADME
Excerpt: as §1

[7] = rat, in vivo, 2 mg/kg
Procedure: Rat pharmacokinetic studies. […] There were three rats per group (n=3), each weighing 250-325 g. Each group received either a 2 mg/kg intravenous or subcutaneous discrete administration. The approximate dose volume was 0.3 mL per rat. Approximately 0.25 mL of whole blood was taken per time point at the following post-dose collection times for the intravenous groups (in hours): 0.083, 0.25, 0.5, 1, 2, 4, 6, 8, 24, 48, 72, 96 and the following time points for the subcutaneous groups (in hours): 0.25, 0.5, 1, 2, 4, 6, 8, 24, 48, 72, 96. Whole blood samples were collected in microtainer vials containing EDTA as anticoagulant and were kept on wet ice until processed for plasma. The plasma was obtained by centrifuging the whole blood for approximately 5 min at 11,500 rpm. Plasma was transferred to new tubes and stored frozen at approximately −70° C. until quantitative analysis. […] The individual sample concentrations for each time point were averaged (n=3) within a given dose group using Excel 2000 software. The averaged plasma concentration-time data were analyzed by noncompartmental methods using WinNonlin v.3.3 software. Nominal sample times were used in the pharmacokinetic analysis. The area under the concentration-time curve was calculated using the linear/log trapezoidal method to determine exposure.

rat CGRP1 receptor = rat CGRP1 receptor (Rattus norvegicus, UniProt Q63118+Q9JJ74); assay: in vitro functional potency against the rat ortholog of the CGRP1 receptor; type: cell-based
rat CGRP1 receptor, sequence (Q63118 24-464): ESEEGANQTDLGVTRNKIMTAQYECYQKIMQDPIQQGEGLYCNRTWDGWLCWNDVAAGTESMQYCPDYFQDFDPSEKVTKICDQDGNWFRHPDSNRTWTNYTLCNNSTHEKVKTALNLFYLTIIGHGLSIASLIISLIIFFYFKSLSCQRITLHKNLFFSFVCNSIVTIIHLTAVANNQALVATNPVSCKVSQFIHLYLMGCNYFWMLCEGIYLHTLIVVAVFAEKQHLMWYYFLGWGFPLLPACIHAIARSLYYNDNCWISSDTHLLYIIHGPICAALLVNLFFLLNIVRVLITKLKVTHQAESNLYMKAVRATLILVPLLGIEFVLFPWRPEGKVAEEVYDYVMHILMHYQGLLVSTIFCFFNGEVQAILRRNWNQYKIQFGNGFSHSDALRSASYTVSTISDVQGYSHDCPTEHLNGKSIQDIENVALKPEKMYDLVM
rat CGRP1 receptor, sequence (Q9JJ74 27-148): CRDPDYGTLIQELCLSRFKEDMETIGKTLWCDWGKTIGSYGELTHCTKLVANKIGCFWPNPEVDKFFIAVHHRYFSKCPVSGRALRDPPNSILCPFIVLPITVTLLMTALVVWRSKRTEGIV
Excerpt: Results and Conclusions. […] This was reflected by an apparently similar rightward shift in potency in vivo.

solubility in words [1]: relatively insoluble
major degradation product [3]: fragment W7-K25
Compound: CC(=O)N[C@@H](Cc1c[nH]c2ccccc12)C(=O)N[C@H](C(=O)N[C@H](C(=O)N[C@@H](Cc1c[nH]cn1)C(=O)N[C@@H](CCCNC(N)=O)C(=O)N[C@@H](CC(C)C)C(=O)N[C@@H](C)C(=O)NCC(=O)N[C@@H](CC(C)C)C(=O)N[C@@H](CC(C)C)C(=O)N[C@@H](CO)C(=O)N[C@@H](CCCNC(N)=O)C(=O)N[C@@H](CO)C(=O)NCC(=O)NCC(=O)N[C@H](C(=O)N[C@H](C(=O)N[C@@H](CCCCNC(=N)N)C(=O)N[C@@H](CCCCN)C(=O)N[C@@H](CC(N)=O)C(=O)N[C@@H](Cc1ccccc1)C(=O)N[C@H](C(=O)N1CCC[C@H]1C(=O)N[C@H](C(=O)N[C@@H](CC(=O)O)C(=O)N[C@H](C(=O)NCC(=O)N1[C@H](C(=O)N[C@@H](Cc2ccccc2)C(=O)N[C@@H](C)C(=O)N[C@@H](Cc2ccccc2)C(N)=O)C[C@@H]2CCCC[C@@H]21)C(C)C)[C@@H](C)O)C(C)C)C(C)C)C(C)C)[C@@H](C)O)C(C)C [SEQ ID NO:658]
degradation products in vivo [2]: fragments W7-T9, T30-A36, W7-N26, T30-F37 and W7-hR24

Compound: Ac-WVTH[Cit]LAGLLS[Cit]SGGVV[hArg]K(20 KPEGald)NFVPTDVGP[1-Nal]AF-NH2 (WVTHXLAGLLSXSGGVVXKNFVPTDVGPXAF; not fully specified; N-acetyl, C-amide, 20 kDa PEG, Cit, hArg, 1-Nal; CGRP peptide; MOD_RES (1)..(1): …ON; MISC_FEATURE (5)..(5): xaa=citrulline; MISC_FEATURE (12)..(12): xaa=citrulline; MISC_FEATURE (18)..(18): xaa=homoarginine; MISC_FEATURE (19)..(19): PEGylated; MISC_FEATURE (29)..(29): xaa=3-(1-naphthyl)alanine; MOD_RES (31)..(31): AMI) [SEQ ID NO: 173]
t1/2 in Cynomolgus plasma [4]: >24 h
t1/2 in rat plasma [5]: 8 to 9 h
t1/2 in human plasma [6]: >24 h
AUC0-inf ([7]; iv): 80996 ng·h/mL
AUC0-t ([7]; iv): 80440 ng·h/mL
MRT ([7]; iv): 4.97 h
AUC0-t ([7]; sc): 4385 ng·h/mL
F % ([7]; sc): 5%

rightward shift of in vitro potency compared with SEQ ID NO:31 (rat CGRP1 receptor): approximately 9 fold
Compound: SEQ ID NO:791 (WVTHXLAGLLSXSGGVVRKNFVPTDVGPFAF; not fully specified; CGRP peptide; MOD_RES (1)..(1): …ON; MISC_FEATURE (5)..(5): xaa=citrulline; MISC_FEATURE (12)..(12): xaa=citrulline; MISC_FEATURE (19)..(19): PEGylated; MOD_RES (31)..(31): AMIDATION)
